Assay: label from the status in PepcDB records

| Sequence | protein production |
| --- | --- |
| MRLLHTSDWHLGRSFHGVGMLDAQRNFVDQLVSLVQSKSVDVVLIAGDVYDRALPGLDVVKLLDDALVRITQAGAGVVLTSGNHDSAIRLGFASRLLERGGVHLRTKVEDIDVPVLFPLGGDENAKNSTLNGQVVVYGIPYLEPRLVAERLGAENANHFDVTLAAVERIRRDVEARRASGPVYPVVLAHTFASGGITSESERDLSIGGLGAVPLDLFDDFAYTALGHLHGRQELAPHVRYSGSPLAYSFSEAKHHKGAWLVDLDAGGVIAVEEVLWEAPKALATLRGTLDDLLGAEEHAWAENAYCQITLTDTQRPAQAMERVRTRFPDTLVLSFDPQGAAARTSTSYSNRLAEAEDDLGVCCGFLDHVRDRDASDAEEAALREALEAVRLQEAEL | failed |
| MKLTIPTWLTLLRIVMIPVLVVVFYLPYTWTNFASAGVFALAAITDWLDGWVARRYHQYSAFGAFLDPVADKLMVAVALFLIVQGHPTPWMAFWAAVIVGREIAVSALREWMAEIGQRAKVRVAAIGKIKTTAQMVALLCLLYSVTPGQMPTHEIWLGNLIFRAGYWTLAIAALLTLWSGFQYLQAAWPSLRADEKAAISNKPKKIESNS | failed |
| MSVLGFDIGNLNCYIGVARQGGIEVITNDYSLHATPACVSFGPKDRSMGVAARQAVTTNIKNTVINFKHLIGRKFSDPVAQRFIPFIPCKVVKLPNDDIGVQVSYLGEPHTFTPEQVLAALLTKLRTIVESQLSDVKKVSDCVLAVPSYFTDVQRRAVLSAIQYAGLNSLRIVNETTAIALAYGIYKQDLPEEDAKSRNVVFLDIGHSSTQASLVAFNRGKLQMVNTSYDLESGGIWFDALIREHFRKEFKTKYGIDAATSPRPWLRLLDECERVKKQMSANQTPIPLNIECFMEDKDVTGKMQRQEFEDLAAPIFNRIKQVLINLFADGVSIKPEEIDEIEIVGGSSRIPMIREIVKDLFGKEPKTTMNQDEAVARGAAMQCAILSPTFRVREFAIKDTQPYRIRLSWNSTGENGGENDVFSPRDEVPFSKLVSLLRSGPFNVEAHYAQPNVVPHNQVHIGSWKVNGARPGADGGNQKVKVKVRVNPDGIFTIASATMYEPRIVEEVPAEAMEVDGDAKTEAPAEPL | failed |
| MVQEPTQDHLIGTTVDGRYTVRSRLASGGMSTVYLATDQRLERDVALKVLHPHLANDPTFLERLSREAKAAASLSHPHIVGVLDQGEDGTIAYLVMEYVKGHTLRDTLNEQGALQPRLALALIDPVIEGLAAAHRSGLIHRDVKPENVLIADDGRIKVGDFGLARAISANTSTGALIGTVAYLAPELVLGQPADARSDIYSAGIMLYEMLTGKQPYAGDSPIQVAYQHVNAAVGRPSDAAPGLAEDLDELVQWCTAVDAENRPVDGTALLTELRHIRTTLTDEDLDRRQAPSQPPGSPAAATAAAALGGPGGNPTEAIPATASPTEMISHQSNPTTIMAAAGSGRPQTAAVGAVNHEVVRQPGKRELKRLERQEIKDRARAAATPSRPLREGNPRRRGIIWTIVIVILATLAASAGWFFGMGPGSPGTVPDVKNKTVAEAQQLLRTAGFQSEPKDVFDDDILAGLAVGTEPESGAEVRKFQPITLFVSKGAQLFALPTLTGGSLDEAKTALNAAEMALGNVTQAFDEKVPAGVVISQDPAKGTEVRHGTPVSLVVSKGPQPIPVPDVRGLAQDAAVKALQDAGLTAVIAPETVNDKTVPKGAVVSQVPANGTLVRGEAVTLTVSKGPKLVKVPSFIGKQADEAEKELKKLGFKVQVNKVLGGFFGTVRDQNPVNTEIPEDSVVTLTVV | failed |
| MMNASSISSRFKDLFVTPSIVFDFDGTLAIGHGPVLAYALCVAPEGSKDFLERVRRELRRYDDGQSIYRDGYDIVAKLASELGIDDGTMSVAYGESRKLLGSDLAPVEHVRGIKDILSSLKGHARLVLATNAPENGVHDLLRQWGVADLFDQLHFVVGKPAGLISIISDLQLDGPVLAVGDIYEFDLSPAAQLGADTALVGATATISEAKVSMRGDSIADLPLLAWVSSRVSSS | failed |
| MNTVDEDIKFKEVPGITNILLLSSDARPGEDVSRSDSIMILTIDNINKKLKVTSLMRDMLVKIDGHGEEKLNHAFAYGGPTKTIETIQNNFGIKLNNYVIVDFNAFVKVIDAINGIEVTVKDYELDELNKYILDGGGSEEDLLPSPGTYNLNGYQALSYARIRKVGNGEYERTERQRAVLQIALEKVKDMSTVKLVSLLNELFPYVKTNISLGNAMDYGFTALNVGKKCNFEIEQFRVPLDSISKGGIINNKGWVFVIDKVETSKALQEFIFNDNKNYEPDTSNFDSIIEQYFNDYDIKDDTTHPDYEYVPSINTNGNFEKPKNNSGNSSNNNSNNKVEKPSNQGNSVNSSNKPSNGSTSTGNNSTEKPNTSEKPSIPQETPTEKPLEHHHHHH | failed |
| MKIKVALLDKDKEYLDRLTGVFNTKYADKLEVYSFTDEKNAIESVKEYRIDVLIAEEDFNIDKSEFKRNCGLAYFTGTPGIELIKDEIAICKYQRVDVIFKQILGVYSDMAANVATISGENDKSSVVIFTSPCGGVGTSTVAAACAIAHANMGKKVFYLNIEQCGTTDVFFQAEGNATMSDVIYSLKSRKANLLLKLESCIKQSQEGVSYFSSTKVALDILEISYADIDTLIGNIQGMDNYDEIIVDLPFSLEIEKLKLLSKAWRIIVVNDGSQLSNYKFMRAYESVVLLEQNDDINIIRNMNMIYNKFSNKNSEMLSNISIKTIGGAPRYEHATVRQIIEALTKMEFFEEILQ | not failed |
| MSDSDAMTDPNAVSYSNAIVVLCTAPDEASAQNLAAQVLGEKLAACVTLLPGATSLYYWEGKLEQEYEVQLLFKSNTDHQQALLTYIKQHHPYQTPELLVLPVRDGDKDYLSWLNASLL | failed |
| MKNNPLISIYMPTWNRQQLAIRAIKSVLRQDYSNWEMIIVDDCSTSWEQLQQYVTALNDPRITYIHNDINSGACAVRNQAIMLAQGEYITGIDDDDEWTPNRLSVFLAHKQQLVTHAFLYANDYVCQGEVYSQPASLPLYPKSPYSRRLFYKRNIIGNQVFTWAWRFKECLFDTELKAAQDYDIFLRMVVEYGEPWKVEEATQILHINHGEMQITSSPKKFSGYFHFYRKHKDKFDRASKKYQLFTLYQIRNKRMTWRTLLTLLSVRNGKRLADGIRGRLEHHHHHH | not failed |
| MIDLILAIIILVSALLGLLRGFVSIIISTSSWLLASWATFEFGNTASHWLASHGIPSTTEILCGYALVFIGTLMTVGAVGMLMHAGINAIRLNNIDRIFGFALGTFRGGFIACLLLLMIGYTPLAHEPVWRNSRLVPLLQPGVSWMRAKLPQRSSPLTPQRLPLTRPMINRMGSINISVSDDNQLISRVFPPLSSNEHDKSHYVPVQPIIYKPTTTY | failed |
| MGHHHHHHSHMKKDPTLQQAHDTMRFFRRGGSLRMLLDDDVTQPLNTVYRYAMQLMEVKEFAGAARLFQLLTIYDAWSFDYWFRLGECCQAQKHWGEAIYAYGRAAQIKIDAPQAPWAAAECYLACDNVCYAIKALKAVVRICGEVSEHQILRLRAEKMLQQLSDRS | failed |
| MWKKKIVLSFLFYLISALGISLTIQAGVGVSSFNAFNVTFATLTHLKVGTVTTAINFAFLGTCWLLDQQRKIQDYLIILVALIGFGFVINFFLYQLFGSLVFQNYLVKIVLFILGTIIAGIGTGQVVALGVLQFPIEKFCTLISERTRYSFQFYRYLVDIFCVSLALGLSISYHLPIFVREGTVISLFLLSWVISWSRKRGQQRILRIQIKKLESE | failed |
| MSENTKVEAKRVFIGAGCNRVVNNVSWGASGLVSFGAQNAVAVFCPKTAQILTTLPGHKASVNCTHWLPTSKFAFKAKKLDRQYLLSGDSDGIIILWELSTLNNDQQWRHVLQLPLSHKKGVTCITAYMVSETDAMFASASSDGVVNVWDVSFPSQPSEECKVVCLDSICVDTKAIVTLSLAELPQNPGRFALALGGLDNKIKLYSGERTGKFTSVCELKGHTDWIRSLDFSLPLHTTEEIPNSIMLVSSSQDKVIRIWKLVLVGDVGSWRREITLASYIEGPVFVSGTFTYQISVESVLIGHEDWVYSVEWQPPVIDFIDGRLVNHQPLSILSASMDKTMMIWRPEKKTGVWVNVVCVGELSHCALGFYGGHWSPNSLSILAHGYGGAFHLWRNVSSSKESENWQMQKVPSGHFAAVTDVTWARTGEYLLSVSQDQTTRVFSAWKNDEGNEAEDEHWHELARPQVHGHDINCVAMVQGKGNHRFVSGAEEKVVRVFEAPLSFLKTLNHTCAGGEGSFPEDLQADVQVLGANMSALGLSQKPIYLHSSSEPLERNGGGEGLDTFETVPEAAPAELKEPPIEDQLAFHTLWPESHKLYGHGNELFSLCSDHKGNLVASSCKAQSASMAEIWLWEVGTWKAVGRLQSHSLTVTHLEFSYDDTLLLSVSRDRHFSVFSIQRTDNGEVSHKLMAKVEAHKRIIWACSWNPFGHQFATSSRDKTVKIWSVENDARIKQILVLPPFGSSVTAVAWTGLDRNEKSGCVAVGMESGLIELSNVKIIETEEGTTATAALALRLEPFMCHVSAVNRLAWRPTEKCESNQSLRWLTSCGDDNCVRVFNFKF | failed |
| GKIVEIGVGFYLEVAKRLRESGIDILVVDINEKAINYARKQGIKGVVDDIFNPTLGIYKDAKAIYSIRPAPEMMKPLLDLARKLKIPLYIVPLTGDR | failed |
| MLTVKQRETDCPMDLNTLISQYGYAALVIGSLAEGETVTLLGGVAAHQGLLKFPLVVLSVALGGMIGDQVLYLCGRRFGGKLLRRFSKHQDKIERAQKLIQRHPYLFVIGTRFMYGFRVIGPTLIGASQLPPKIFLPLNILGAFAWALIFTTIGYAGGQVIAPWLHNLDQHLKHWVWLILVVVLVVGVRWWLKRSGKKKPDHQA | failed |
| MSLILYDYFRSTACYRVRIALNLKKIAYEKIEVHLVNNGGEQHSLQYHQINPQELVPSLDINGQILSQSMAIIDYLEEIHPEMPLLPKDPFMKATLKSMALIVACDMHPLNNLRVLNRLKEQFNANEEQVLEWYHHWLKTGFDAFEEKLGALERDKPVCFGSEVGLADVCLIPQVYNAHRFHFDMASYPIINEINEYCLTLPAFHDAAPEAISSEGHHHHHH | not failed |
| MSLKSLASIENWPVPTAAAGVVRADGTVLGTHGPAAHRFPLASVTKPLAAYAALVAYEEGAIELDEPAGPPGATVRHLLAHTSGLAFDEHRVTAPPGDRRLYSNAGFEQLGDHIAKAAEMPFAEYARQAVLEPLGMTATSLAGSPAKDGVSTVDDLLRFAAEVQAPRLLDPRTVAEAMTVQYPGTKGVLPGYGHQNPNDWGLGFEIRDGKSPHWTGAASSPRTFGHFGQSGTFLWIDPDAALACVSLTDRAFGPWAVEAWPPFTDGVLAEVRG | failed |
| MEVKIEKPTPEKLKELSVEKWPIWEKEVSEFDWYYDTNETCYILEGKVEVTTEDGKKYVIEKGDLVTFPKGLRCRWKVLEPVRKHYNLF | not failed |
| RSSEWLEKWQFVNGRFREHLQTISSEDVSFEGNLYRILQHLVPENSSLFVGNSMPIRDVDTFFEKQDRPFRIYSNRGANGIDGVVSSAMGVCEGTKAPVTLVIGDLSFYHDLNGLLAAKKLGIPLTVILVNNDGGGIFSFLPQASEKTHFEDLFGTPTGLDFKHAAALYGGTYSCPASWDEFKTAYAPQADKPGLHLIEIKTDRQSRVQLHRDMLNEAVREVKKQWEL | failed |
| MRLGTFHKKKRFYINKIKINFLSFLFRNKINNQITDPAQVKSCLIIHDNNKLGDLIVLSSIYRELYSKGVKITLLTNRKGGEFLSNNKNIFEFCIKESTGFLEMLTLCKHLRDLQFDIVLDPFETMPSFKHSLILSSLKDSYILGFDHWYKRYYSFYHPHDECLKEHMSTRAIEILKHIYGEGKFSTNYDLHLPVDVEDKIKEFIGDTRIVIINPLGAKKICRLTFEQIKVIYQEVKTHFENYRIIFTGLPQDLLTIPILEIETLPFDEFIYTVALTKYSDFVISVDTALVHIAAAYHKPTLAFYPNSRTPEYPSHLIWSPNHHKSIQIVSPTYTVKDIDTETLTNSVKRLSCIDKK | failed |
